The values that follow come from patent US6361968 (US Dept. of Health and Human Services, dated 1997).

B1: New4hepCREB (CREB with the new 4heptad extension, asparagine changed to leucine) (designed binder)
chain: MDYKDDDDKHMASMTGGQQMGRDPDLEQRAEELARENEELEKEAEELEQELAELENRVAVLENQNKTLIEELKALKDLYCHKSD
notes: also called New4heptadCREB; CMV500-4heptadCREB
B2: 4heptadCREB (CREB with the 4heptad acidic extension appended at the amino terminus) (designed binder)
chain: ASMTGGQQMGRDPDLEQRAEELARENEELEKEAEELEQENAELENRVAVLENQNKTLIEELKALKDLYCHKSD
notes: also called 4hep-CREB
B3: 3heptad-F with the DP- N-terminal cap (designed binder)
chain: ASMTGGQQMGRDPLARENEELEKEAEELEQENAELEQEVLELESRNDRLRKEVEQLERELDTLRGIFRQLPESSLVKAMGNCA
notes: Built from the statement that DP- replaces DP-GGG; also called DP- cap
B4: AcidMax (Max with a polyglutamic acid extension) (designed binder)
chain: MASMTGGQQMGRDPDEEEDDEEELEELEDSFHSLRDSVPSLQGEKASRAQILDKATEYIQYMRRKNHTHQQDIDDLKRQNALLEQQVRALEKARSSAQLQT
B5: 1heptad-F (designed binder)
chain: ASMTGGQQMGRDPGGGLEQENAELEQEVLELESRNDRLRKEVEQLERELDTLRGIFRQLPESSLVKAMGNCA
B6: new4heptadFos (4heptadFos with one asparagine of the acidic region changed to leucine) (designed binder)
chain: ASMTGGQQMGRDPDLEQRAEELARENEELEKEAEELEQELAELEAETDQLEDEKSALQTEIANLLKEKEKLEFILAAHRPACKIP
notes: also called N4heptad-Fos
B7: 0heptadMax (dimerization domain of Max without an acidic extension) (designed binder)
chain: ASMTGGQQMGRDPDLEELEDSFHSLRDSVPSLQGEKASRAQILDKATEYIQYMRRKNHTHQQDIDDLKRQNALLEQQVRALEKARSSAQLQT
notes: domain: dimerization domain; also called OheptadMax
B8: 4heptad-F (designed binder)
chain: ASMTGGQQMGRDPGGGLEQRAEELARENEELEKEAEELEQENAELEQEVLELESRNDRLRKEVEQLERELDTLRGIFRQLPESSLVKAMGNCA
notes: also called 4heptad-F zipper protein
B9: GBF-C/EBP chimeric protein (other)
chain: PVKDERELKRQKRKQSNRESARRSRLRNEAECEQTQQKVLELTSDNDRLRKRVEQLSRELDTLRGIFRQLPESSLVKAMGNCA
B10: 2heptad-F (designed binder)
chain: ASMTGGQQMGRDPGGGLEKEAEELEQENAELEQEVLELESRNDRLRKEVEQLERELDTLRGIFRQLPESSLVKAMGNCA
B11: c-Jun (unmodified) (other, UniProt P05412 241-331, looked up)
chain: PLSPIDMESQERIKAERKRMRNRIAASKCRKRKLERIARLEEKVKTLKAQNSELASTANMLREQVAQLKQKVMNHVNSGCQLMLTQQLQTF
B12: c-Fos (unmodified) (other)
chain: PDKVEQLSPEEEEKRRIRRERNKMAAAKCRNRRRELTDTLQAETDQLEDEKSALQTEIANLLKEKEKLEFILAAHRPACKIP
notes: also called human c-Fos protein
B13: 3heptad-C/EBP (three heptad acidic extension appended onto the C/EBP leucine zipper) (designed binder)
chain: ASMTGGQQMGRDPGGGLARENEELEKEAEELEQENAELEQKVLELTSDNDRLRKRVEQLSRELDTLRGIFRQLPESSLVKAMGNCA
B14: 3heptad-F with the DP-D N-terminal cap (designed binder)
chain: ASMTGGQQMGRDPDLARENEELEKEAEELEQENAELEQEVLELESRNDRLRKEVEQLERELDTLRGIFRQLPESSLVKAMGNCA
notes: Built from the statement that DP-D replaces DP-GGG; also called DP-D cap; DPD cap
B15: VBP-C/EBP chimeric protein (other)
chain: ASMTGGQQMGRDPLEEKVFVPDEQKDEKYWTRRKKNNVAAKRSRDARRLKENQTQQKVLELTSDNDRLRKRVEQLSRELDTLRGIFRQLPESSLVKAMGNCA

The target of series [1] is T1, CREB (unmodified) (UniProt P16220 254-327).
T1 construct: also called CREB protein
T1 sequence (looked up): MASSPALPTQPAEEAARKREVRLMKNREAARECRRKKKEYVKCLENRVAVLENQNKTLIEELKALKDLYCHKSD
The series is described as follows: thermal melt of the mixture (FIG. 3).

The target of series [2] is T1, CREB (unmodified). Description: thermal melt, CREB with 4heptadCREB (FIG. 3).
For series [3], the target named is T2, C/EBP bZIP domain (GCN4-C/EBP chimeric protein) (C/EBP: rat liver; GCN4: yeast).
T2 construct: Made in E. coli; forms a homodimer; also called C/EBP-C/EBP; wild type C/EBP
T2 chain: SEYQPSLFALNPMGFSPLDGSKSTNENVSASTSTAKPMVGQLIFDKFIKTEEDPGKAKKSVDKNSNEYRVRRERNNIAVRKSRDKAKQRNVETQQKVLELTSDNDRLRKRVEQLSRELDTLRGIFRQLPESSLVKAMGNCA
The series is described as follows: thermal stability as heterodimers with C/EBP.

Series [4] deals with the molecule itself. The series is described as follows: homodimer, dimerization study of FIG. 9.
Another series has as its target c-Myc bHLH protein (murine, UniProt P01108 368-454). Description: heterodimer with c-Myc, dimerization study of FIG. 9.
The target in series [5] is B9. The series is described as follows: CD thermal melt, equimolar mixture, 150 mM KCl. On the procedure:
(§1) Table 1 presents the melting temperature (T_m,° C.), $\Delta G$ and k_d at 25° C. for CD thermal melts of a variety of proteins either as homodimers or an equimolar mixture of two proteins. […] The (L) denotes 'low' salt conditions (50 mM KCl, 25 mM Tris pH 8.0, 0.5 mM EDTA, 1 mM DTT) and the (H) denotes regular salt conditions (12.5 mM potassium phosphate, pH 7.4, 150 mM KCl, 0.25 mM EDTA, and 0.5 mM DTT). The latter conditions were used in Table 2. "0heptad-F" represents the F zipper with the basic region deleted. The RMS error in $\Delta G$ is 0.2 kcal/mol and 0.5 kcal/mol for homo- and heterodimers respectively.
(§2) The two chimeras were mixed with the four different length acidic extensions appended to the F zipper and their stability was determined from CD thermal melts.

For series [6], the target named is T2, C/EBP bZIP domain (GCN4-C/EBP chimeric …). Description: CD thermal melt, equimolar mixture, 150 mM KCl. Here is the method:
as §1, §2

The target in series [7] is B15. The series is described as follows: CD thermal melt, equimolar mixture, 150 mM KCl. Here is the method: as §1, §2
For series [8], the target named is B9. The series is described as follows: CD thermal melt, equimolar mixture, 150 mM KCl, Kd at 25 C. On the procedure:
as §1, §2

The target of series [9] is T2, C/EBP bZIP domain (GCN4-C/EBP chimeric …). The series is described as above. On the procedure:
as §1, §2

In series [10] the target is B15. The description is as above. On the procedure: as §1, §2
Series [11] deals with the molecule itself. Description: CD thermal melt, homodimer, 150 mM KCl, Kd at 25 C. Here is the method: (§3) CD analyses were performed as described in Materials and Methods of D. Krylov et al., 1994, *EMBO J.,* 13:2849–2861. T_m values were calculated as described in D, Krylov et al., 1994, Ibid, converted to K_{d(25)} and $\Delta G(25)$ using a $\Delta C_p$ of –0.96 kcal/mol° C.^-1 calculated from a T_m versus $\Delta H$ plot for all of the proteins as described herein. All thermal melts were reversible.
as §1

Series [12] deals with the molecule itself. Description: CD thermal melt, homodimer, 150 mM KCl. Here is the method: as §3, §1
In series [13] the target is B9. The series is described as follows: CD thermal melts.
For series [14], the target named is T2, C/EBP bZIP domain (GCN4-C/EBP chimeric …). The series is described as follows: CD thermal melts.
Series [15] deals with B15. The series is described as follows: CD thermal melts.
Series [16] addresses B11. The series is described as follows: thermal melt of the mixture (FIG. 4).
Series [17] concerns the target B9. The series is described as follows: thermal melt of the mixture (FIG. 1).
For series [18], the target named is T2, C/EBP bZIP domain (GCN4-C/EBP chimeric …). The series is described as follows: thermal melt of the mixture (FIG. 1).
Series [19] addresses B15. The series is described as follows: thermal melt of the mixture (FIG. 1).
Series [20] concerns the molecule itself. The series is described as follows: from thermal melts of FIG. 4, Kd at 37 C.
In series [21] the target is B11. Description: from thermal melts of FIG. 4, Kd at 37 C.

Chain of c-Myc bHLH protein (P01108 368-454 limits assumed, form in doubt): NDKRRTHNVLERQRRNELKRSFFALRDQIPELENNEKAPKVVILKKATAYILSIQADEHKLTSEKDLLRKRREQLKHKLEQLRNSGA

B1: the melting temperature (Tm) with CREB (unmodified) [1] turned out to be 69.5 °C.

For B2, in the series with CREB (unmodified) [2], the Tm stood at 53 °C.

Regarding B3, the “fold stability against the DP-GGG cap” value in series [3] stood at 3 fold.

For B4, the figures for the Kd (in series [4]; in the series with c-Myc bHLH protein) were 30 nM and 0.002 nM, respectively.

B5: the Tm in series [5] came out at 62 °C; in series [6], 60.8 °C; in series [7], 60.5 °C. Besides, the “deltaG at 25 C” value in series [5] was -13.2 kcal/mol; in series [6], -13.5 kcal/mol; in series [7], -13.1 kcal/mol; in [12] it was -8 kcal/mol. In addition, the Kd in [8] is 0.2 nM; in [9], 0.1 nM; in series [10] it was 0.3 nM; in series [11], 1000 nM. Also, the “stabilization against 0heptad-F” value is 1.3 kcal/mol in series [13], 1.7 kcal/mol in series [14] and 0.9 kcal/mol in series [15].

Regarding B6, the Tm with c-Jun (unmodified) [16] was 72 °C.

For the molecule B7, the Kd in [4] is 100 nM.

Regarding B8, the figures for the Tm in series [5], in series [6] and in series [7] were 65 °C, 64.8 °C and 65.2 °C, respectively. In addition, the “deltaG at 25 C” value in series [5] was -14.5 kcal/mol; in series [6], -14.2 kcal/mol; in series [7], -14.8 kcal/mol; in [12], -6.3 kcal/mol. In addition, the Kd stood at 0.03 nM in series [8], 0.04 nM in [9], 0.01 nM in [10] and 20000 nM in series [11]. For the same molecule, the “melting temperature (given as ellipticity)” value in [17], in series [18] and in series [19] was 65 °C in each case.

Regarding B9, binding in series [11] was characterised by a dissociation constant (Kd) of 20 nM. Also, in [12], the “deltaG at 25 C” value was -10.6 kcal/mol.

For the molecule B10, the Tm turned out to be 63.1 °C in series [5], 63.6 °C in [6] and 62.8 °C in series [7]. The “deltaG at 25 C” value in series [5] is -13.6 kcal/mol; in series [6], -13.9 kcal/mol; in [7] it was -13.8 kcal/mol; in [12], -7.4 kcal/mol. Also, the Kd worked out at 0.1 nM in [8], 0.07 nM in series [9], 0.09 nM in series [10] and 4000 nM in series [11].

With B11, the Kd in series [20] came out at 20000 nM.

In the series with c-Jun (unmodified) [21], B12 returned a Kd of 200 nM. In addition, in the series with c-Jun (unmodified) [16], the Tm came to 50 °C.

As for B13, in series [6], the Tm was found to be 61 °C and the “deltaG at 25 C” value was -12.6 kcal/mol. Moreover, in series [9], the Kd was found to be 0.6 nM.

For B14, the “fold stability against the DP-GGG cap” value in series [3] stood at 3 fold.

In series [11], B15 yielded a Kd of 8 nM. Further, in series [12], the “deltaG at 25 C” value is -11.1 kcal/mol.

One may read the Tm as the temperature at the midpoint of the melting transition. By Kd is commonly meant the equilibrium constant for the complex coming apart.
